In US11015206B2, “Compositions and methods comprising sequences having hydroxyphenylpyruvate dioxygenase (HPPD) activity” (PIONEER HI-BRED INTERNATIONAL, INC., priority 2014, dated 2021):
Where a chain is given by its changes, count along the chain named. Blank lines part the entries; values can stand above or below the molecule they belong to.

Experiments:
Format in all cases: biochemical, Z. mays
[1] = test system: 4-hydroxyphenylpyruvate dioxygenase (HPPD); experiment: ON rate ratio: HPPD reaction rate with vs without inhibitor in the 70 to 90 second interval; details: Table 7; tembotrione; combinatorial variants
Text: (§1) Higher KD (reduced affinity or increased insensitivity) can be attained with a numerically smaller ON rate, a larger OFF rate or both. To detect and quantify changes in kON and kOFF, observations of the time course of an HPPD reaction as inhibitor binds to and inactivates the enzyme (kON), or is released from a pre-formed enzyme-inhibitor complex (kOFF) were used, as shown in FIGS. 13A and 13B. In practice, a quantitative indicator of kON was obtained by monitoring the time courses of HPPD reactions containing 60 or 120 nM HPPD and 100 μM HPP in the presence and absence of 4 μM inhibitor (e.g., mesotrione or tembotrione). The ratio of the reaction rate with inhibitor to that without inhibitor during the 70 to 90 second interval of the reaction was termed the “ON rate ratio”. The smaller the actual kON, the more slowly the HPPD reaction decelerates and the higher the value is for the ON rate ratio. FIGS. 13A and 13B illustrate the contrasting reaction velocity in the 70-90 sec interval for maize wild-type HPPD (FIG. 13A) versus an improved variant (SEQ ID NO:78) (FIG. 13B).

[2] = test system: 4-hydroxyphenylpyruvate dioxygenase (HPPD); experiment: OFF rate ratio: release of inhibitor from pre-formed enzyme-inhibitor complex; details: Table 7; tembotrione; combinatorial variants
Procedure: A quantitative indicator of kOFF can be obtained by observing the time course of an HPPD reaction as inhibitor is released from a pre-formed enzyme-inhibitor complex. HPPD and inhibitor were incubated together at concentrations of 7.2 and 8 μM, respectively. Incubations with the same concentrations of enzyme but no inhibitor were done in parallel. After 1 hr at room temperature, 5 to 10 μl of the enzyme-inhibitor complex was dispensed into the wells of the assay plate. Reactions were started with the addition of 290 to 295 μl of 25 mM Hepes, pH 7, 2 mM ascorbate, 10 μM FeSO4, 100 μM HPP and 50 nM HGD. The reactions were monitored at 320 nm for 12 min. Reaction velocity accelerates as inhibitor is released from the enzyme until a steady state is reached, during which the reaction velocity is constant. The ratio of the steady state rate in mixtures containing herbicidal inhibitor to the initial velocity of mixtures lacking inhibitor is termed the “OFF rate ratio”.
Another parameter to record is the time span required for the reactions with inhibitor to reach the steady state. FIGS. 13C and 13D illustrate the contrasting time span in which maize wild-type HPPD (FIG. 13C) and an improved variant (SEQ ID NO:78) (FIG. 13D) dissociated from mesotrione, as indicated by the accelerating reaction rates. The plateau of absorbance is due to exhaustion of the substrate. With the improved variant, not only was the steady state attained in a shorter time span (80 sec for the variant versus 280 sec for wild type), the velocity attained was twice as high as with wild type, though the enzymes were present at the same concentration (240 nM). This is because a larger fraction of the variant enzyme is free of inhibitor compared to the wild-type enzyme, and the kcat for both is nearly the same, about 220 min^−1.

[3] = test system: 4-hydroxyphenylpyruvate dioxygenase (HPPD); experiment: Insensitivity parameter (ON × OFF) and trait fitness (ON × OFF × kcat/KM or × kcat); design: key to ON × OFF / Insensitivity, mesotrione, ON × OFF / Insensitivity, tembotrione, ON × OFF / Insensitivity, topramezone, ON × OFF / Insensitivity, sulcotrione, ON × OFF / Insensitivity, isoxaflutole (DKN), ON × OFF: insensitivity = ON rate ratio × OFF rate ratio (surrogate for KD)
Text: Because substrate and inhibitors bind in the same site, the high concentration of substrate present may competitively trap the inhibitor and prevent it from binding again. To be sure that improvement in ON rates is being taken into account, the ON and OFF rate ratios were multiplied, creating an “insensitivity parameter” that is a surrogate for KD. KD is expressed as kOFF/kON, but because the ON rate ratio is an inverse parameter (the higher the value of ON rate ratio, the lower the value of the represented phenomenon, kON), it is appropriate to multiply ON and OFF rate ratios rather then divide OFF rate ratio by ON rate ratio. Another parameter, which quantifies the combined catalytic and insensitivity properties of the enzyme is kcat/KM×ON rate ratio×OFF rate ratio, and is termed “trait fitness”. This parameter is intended to have a meaning similar to the commonly used expression kcat/KM×Ki.

[4] = test system: 4-hydroxyphenylpyruvate dioxygenase (HPPD); experiment: Estimate of kcat from initial rate at saturating hydroxyphenylpyruvate without inhibitor (ON rate ratio assay)
Text: as §1
Thirty nine variants were desensitized to tembotrione compared with the backbone enzyme, Round 7, variant 9070 (SEQ ID NO:2) and all were desensitized compared with maize wild type HPPD (SEQ ID NO:1). Because the assay for ON rate ratio includes an initial rate measurement at saturating hydroxyphenylpyruvate without inhibitor and with known enzyme concentration, an estimate of kcat was available. Taking into account kcat and insensitivity parameters, 30 variants were selected for measurement of substrate saturation kinetic parameters and re-evaluation of insensitivity to tembotrione. The kinetic and insensitivity parameters were determined as described in Example 1, and were multiplied to generate the “trait fitness” parameter. The complete list of variants, i.e., of selected single substitutions in SEQ ID NO:2, analyzed with multiple inhibitors and the results obtained are shown in Table 6. The same set of 30 variants were evaluated for insensitivity to mesotrione, sulcotrione, isoxaflutole (its active diketonitrile form, abbreviated DKN in Table 6) and topramezone.

[5] = Table 7, tembotrione, combinatorial variants
[6] = Table 7, combinatorial variants

B1: P056028-A-09 (protein)
chain: MGPTPTATAAGAAVAAASAAEQAAFRLVGHRNFVRFNPRSDRFQTLAFHHVELWCADAASAAGRFSFALGVPLAARSDLSTGNSAHASLLLRSGSLSLLFTAPYAHGADAATAALPSFSAAAARRFAADHGLAVRAVALRVADAEDAFRASVAAGARKAFGPVDLGRGFRLAEVELYGDVVLRYVSYPDGAAGEPFLPGFEGVASPGAADLGLNRFDHIVGNVPELAPAAAYMAGFTGFHEFAEFTTEDVGTTESGLNSMALANNSENVLLPLNEPVHGTKRRSQIQTFLDHHGGPGVQHIALASDDVLRTLREMRARSAMGGFEFLPPPLSDYYDGVRRCAGDVLTEAQINECQELGVMVDRDDEGVLLQIFTKPVGDRPTFFLEIIQRIGCMEKDEKGQEYQKGGCGGFGKGNFGQLFKSIEDYEKSLEAKQAAAAATAQGS
modifications: Zea mays variant form created by artificial means.
- ON rate ratio [1]: 0.692
- OFF rate ratio [2]: 0.339
- ON × OFF ([3]; Megatable 3, shuffled variants): 0.235
- ON × OFF × kcat ([3]; Megatable 3, shuffled variants): 3.26
- ON × OFF [3, 5]: 0.235
- ON × OFF × kcat [3, 5]: 3.26
- kcat ([4]; Megatable 3, shuffled variants): 0.232 s⁻¹
- kcat [4, 6]: 0.232 s⁻¹

B2: P056028-B-03 (protein)
chain: B1 chain with K158P, L211Y, E356R
modifications: Zea mays variant form created by artificial means.
- ON rate ratio [1]: 0.732
- OFF rate ratio [2]: 0.353
- ON × OFF ([3]; Megatable 3, shuffled variants): 0.259
- ON × OFF × kcat ([3]; Megatable 3, shuffled variants): 4.63
- ON × OFF [3, 5]: 0.259
- ON × OFF × kcat [3, 5]: 4.63
- kcat ([4]; Megatable 3, shuffled variants): 0.298 s⁻¹
- kcat [4, 6]: 0.298 s⁻¹

B3: P056028-C-02 (protein)
chain: B1 chain with K158P, N214S, E356K
modifications: Zea mays variant form created by artificial means.
- ON rate ratio [1]: 0.717
- OFF rate ratio [2]: 0.379
- ON × OFF ([3]; Megatable 3, shuffled variants): 0.272
- ON × OFF × kcat ([3]; Megatable 3, shuffled variants): 5.11
- ON × OFF [3, 5]: 0.272
- ON × OFF × kcat [3, 5]: 5.11
- kcat ([4]; Megatable 3, shuffled variants): 0.313 s⁻¹
- kcat [4, 6]: 0.313 s⁻¹

B5: P056028-B-05 (protein)
chain: B1 chain with K158P, L211Y, N214S, K281R, R340K, I387L
modifications: Zea mays variant form created by artificial means.
- ON rate ratio [1]: 0.734
- OFF rate ratio [2]: 0.287
- ON × OFF ([3]; Megatable 3, shuffled variants): 0.211
- ON × OFF × kcat ([3]; Megatable 3, shuffled variants): 3.85
- ON × OFF [3, 5]: 0.211
- ON × OFF × kcat [3, 5]: 3.85
- kcat ([4]; Megatable 3, shuffled variants): 0.305 s⁻¹
- kcat [4, 6]: 0.305 s⁻¹

B6: P056028-B-07 (protein)
chain: B1 chain with K158P, P206Q, L211Y, N214S, L385I, I387L
modifications: Zea mays variant form created by artificial means.
- ON rate ratio [1]: 0.788
- OFF rate ratio [2]: 0.389
- ON × OFF ([3]; Megatable 3, shuffled variants): 0.307
- ON × OFF × kcat ([3]; Megatable 3, shuffled variants): 2.83
- ON × OFF [3, 5]: 0.307
- ON × OFF × kcat [3, 5]: 2.83
- kcat ([4]; Megatable 3, shuffled variants): 0.153 s⁻¹
- kcat [4, 6]: 0.153 s⁻¹

B9: P056028-C-03 (protein)
chain: B1 chain with F67Y, K158P, L211Y, N214S, R340K, L385I, I387L
modifications: Zea mays variant form created by artificial means.
- ON rate ratio [1]: 0.739
- OFF rate ratio [2]: 0.356
- ON × OFF ([3]; Megatable 3, shuffled variants): 0.263
- ON × OFF × kcat ([3]; Megatable 3, shuffled variants): 3.62
- ON × OFF [3, 5]: 0.263
- ON × OFF × kcat [3, 5]: 3.62
- kcat ([4]; Megatable 3, shuffled variants): 0.228 s⁻¹
- kcat [4, 6]: 0.228 s⁻¹

B10: P056028-B-08 (protein)
chain: B1 chain with K158P, L211Y, N214S, R340K
modifications: Zea mays variant form created by artificial means.
- ON rate ratio [1]: 0.681
- OFF rate ratio [2]: 0.325
- ON × OFF ([3]; Megatable 3, shuffled variants): 0.221
- ON × OFF × kcat ([3]; Megatable 3, shuffled variants): 3.44
- ON × OFF [3, 5]: 0.221
- ON × OFF × kcat [3, 5]: 3.44
- kcat ([4]; Megatable 3, shuffled variants): 0.258 s⁻¹
- kcat [4, 6]: 0.258 s⁻¹

B11: P056028-B-01 (protein)
chain: B1 chain with K158P, L211Y, N214S, R340K, I387L
modifications: Zea mays variant form created by artificial means.
- ON rate ratio [1]: 0.745
- OFF rate ratio [2]: 0.309
- ON × OFF ([3]; Megatable 3, shuffled variants): 0.230
- ON × OFF × kcat ([3]; Megatable 3, shuffled variants): 4.28
- ON × OFF [3, 5]: 0.230
- ON × OFF × kcat [3, 5]: 4.28
- kcat ([4]; Megatable 3, shuffled variants): 0.31 s⁻¹
- kcat [4, 6]: 0.31 s⁻¹

B13: P056028-B-04 (protein)
chain: B1 chain with K158P, L182M, P206S, L211Y, R340K
modifications: Zea mays variant form created by artificial means.
- ON rate ratio [1]: 0.718
- OFF rate ratio [2]: 0.273
- ON × OFF ([3]; Megatable 3, shuffled variants): 0.196
- ON × OFF × kcat ([3]; Megatable 3, shuffled variants): 3.24
- ON × OFF [3, 5]: 0.196
- ON × OFF × kcat [3, 5]: 3.24
- kcat ([4]; Megatable 3, shuffled variants): 0.275 s⁻¹
- kcat [4, 6]: 0.275 s⁻¹

Continued, in another order:

- ON rate ratio [1]: 0.703
- OFF rate ratio [2]: 0.327
- ON × OFF ([3]; Megatable 3, shuffled variants): 0.230
- ON × OFF [3, 5]: 0.230
B4: P056028-B-10 (protein)
chain: B1 chain with K158P, L182M, L211Y, N214S, L385V
modifications: Zea mays variant form created by artificial means.
- ON × OFF × kcat ([3]; Megatable 3, shuffled variants): 4.12
- ON × OFF × kcat [3, 5]: 4.12
- kcat ([4]; Megatable 3, shuffled variants): 0.298 s⁻¹
- kcat [4, 6]: 0.298 s⁻¹

- ON rate ratio [1]: 0.699
- OFF rate ratio [2]: 0.356
- ON × OFF ([3]; Megatable 3, shuffled variants): 0.249
- ON × OFF [3, 5]: 0.249
B7: P056028-C-10 (protein)
chain: B1 chain with K158P, P188S, L211Y, N214S, R340K
modifications: Zea mays variant form created by artificial means.
- ON × OFF × kcat ([3]; Megatable 3, shuffled variants): 3.63
- ON × OFF × kcat [3, 5]: 3.63
- kcat ([4]; Megatable 3, shuffled variants): 0.243 s⁻¹
- kcat [4, 6]: 0.243 s⁻¹

- ON rate ratio [1]: 0.713
- OFF rate ratio [2]: 0.353
- ON × OFF ([3]; Megatable 3, shuffled variants): 0.252
- ON × OFF [3, 5]: 0.252
B8: P056028-B-06 (protein)
chain: B1 chain with K158P, L211Y, N214S, E356K
modifications: Zea mays variant form created by artificial means.
- ON × OFF × kcat ([3]; Megatable 3, shuffled variants): 5.03
- ON × OFF × kcat [3, 5]: 5.03
- kcat ([4]; Megatable 3, shuffled variants): 0.333 s⁻¹
- kcat [4, 6]: 0.333 s⁻¹

- ON rate ratio [1]: 0.731
- OFF rate ratio [2]: 0.293
- ON × OFF ([3]; Megatable 3, shuffled variants): 0.214
- ON × OFF [3, 5]: 0.214
B12: P056028-C-11 (protein)
chain: B1 chain with K158P, N214S, R340K, I387L
modifications: Zea mays variant form created by artificial means.
- ON × OFF × kcat ([3]; Megatable 3, shuffled variants): 2.64
- ON × OFF × kcat [3, 5]: 2.64
- kcat ([4]; Megatable 3, shuffled variants): 0.205 s⁻¹
- kcat [4, 6]: 0.205 s⁻¹
